In article PMC5678581 (BMC Biology, 2017):

How the values were obtained:
[1] = test system: His-TRIM25 (Homo sapiens); test: EMSA; settings: 3 mM Mg2+, 0.5 mM ATP; EMSA: 4.8 mM Tris pH 8, 144 mM NaCl, 0.96 mM DTT, 3 mM MgCl2, 0.5 mM ATP, 37.5 mM creatine phosphate, 16 uL, ~0.1 pmol RNA, 4 C 1 h; pull-down conditions not …
[2] = biological target: the molecule itself; test: SEC-MALS; approximately 0.75 mg/mL on Superdex200 Increase 10/300 GL, 1.0 mL/min, 10 mM Tris (pH 8.0), 300 mM NaCl, 0.5 mM TCEP; self-association (tetramer)

Question: For pre-let-7a-1, which Kd [1] is on record?
Answer: The Kd was 800 nM.

B1: recombinant His-tagged TRIM25ΔRBD (lacking residues 470–508) (natural protein, human, UniProt Q14258 1-630, looked up)
chain: MAELCPLAEELSCSICLEPFKEPVTTPCGHNFCGSCLNETWAVQGSPYLCPQCRAVYQARPQLHKNTVLCNVVEQFLQADLAREPPADVWTPPARASAPSPNAQVACDHCLKEAAVKTCLVCMASFCQEHLQPHFDSPAFQDHPLQPPVRDLLRRKCSQHNRLREFFCPEHSECICHICLVEHKTCSPASLSQASADLEATLRHKLTVMYSQINGASRALDDVRNRQQDVRMTANRKVEQLQQEYTEMKALLDASETTSTRKIKEEEKRVNSKFDTIYQILLKKKSEIQTLKEEIEQSLTKRDEFEFLEKASKLRGISTKPVYIPEVELNHKLIKGIHQSTIDLKNELKQCIGRLQEPTPSSGDPGEHDPASTHKSTRPVKKVSKEEKKSKKPPPVPALPSKLPTFGAPEQLVDLKQAGLEAAAKATSSHPNSTSLKAKVLETFLAKSRPELLEYYIKVILDYNTAHNKKGIHYWEVELQKNNFCGVGICYGSMNRQGPESRLGRNSASWCVEWFNTKISAWHNNVEKTLPSTKATRVGVLLNCDHGFVIFFAVADKVHLMYKFRVDFTEALYPAFWVFSAGATLSICSPK
Question: For B1, which “stoichiometry N” value [2] is on record?
Answer: The value was 4.
